One experiment addresses HLA-B*15:02. As to the kind of experiment: IEDB peptide-MHC binding, purified MHC/direct/fluorescence; filed as Kd, often an IC50 or EC50 that approximates it; ≥ and ≤ were set here for values at or beyond the usual limits of such assays.
The target of the next experiment is HLA-B*46:01. The description is as above.
For a further experiment, the target named is HLA-B*07:02. Described as above.
Another experiment addresses HLA-B*15:01. The experiment is described as above.
The target in experiment [1] is HLA-B*35:01. The experiment is described as above.
Experiment [2] has as its target HLA-A*01:01. As to the kind of experiment: IEDB peptide-MHC binding, purified MHC/competitive/fluorescence; filed as Kd, often an IC50 or EC50 that approximates it; ≥ and ≤ were set here for values at or beyond the usual limits of such assays. Conditions: source organism: Human immunodeficiency virus 1.
The target in experiment [3] is HLA-B*08:01. The description is as above. Conditions: source organism: Human immunodeficiency virus 1.
Experiment [4] addresses HLA-A*11:01. Described as above. Conditions: source organism: Human immunodeficiency virus 1.
For a further experiment, the target named is HLA-B*57:01. The description is as above. Particulars: source organism: Human immunodeficiency virus 1.
Experiment [5] addresses HLA-A*31:01. The experiment is described as above. Conditions: source organism: Human immunodeficiency virus 1.
The next experiment concerns the target HLA-A*68:02. The experiment is described as above. Particulars: source organism: Human immunodeficiency virus 1.
The next experiment addresses HLA-A*26:02. Described as above. Conditions: source organism: Human immunodeficiency virus 1.
In experiment [6] the target is HLA-B*58:01. The experiment is described as above. Conditions: source organism: Human immunodeficiency virus 1.
Another experiment concerns the target HLA-B*15:17. The description is as above. Particulars: source organism: Human immunodeficiency virus 1.
Experiment [7] addresses HLA-A*69:01. The experiment is described as above. Conditions: source organism: Human immunodeficiency virus 1.
For another experiment, the target named is HLA-A*02:03. The experiment is described as above. Particulars: source organism: Human immunodeficiency virus 1.
Another experiment has as its target HLA-A*02:06. The description is as above. Conditions: source organism: Human immunodeficiency virus 1.
The target of another experiment is HLA-B*39:01. The experiment is described as above. Conditions: source organism: Human immunodeficiency virus 1.
Experiment [8] has as its target HLA-B*18:01. The description is as above. Particulars: source organism: Human immunodeficiency virus 1.
Another experiment has as its target HLA-A*30:01. The experiment is described as above. Conditions: source organism: Human immunodeficiency virus 1.
The target in experiment [9] is HLA-B*35:01. The description is as above. Particulars: source organism: Human immunodeficiency virus 1.
The target in the next experiment is HLA-A*26:01. As to the kind of experiment: IEDB peptide-MHC binding, purified MHC/direct/fluorescence; filed as Kd, often an IC50 or EC50 that approximates it; ≥ and ≤ were set here for values at or beyond the usual limits of such assays.
Experiment [10] addresses HLA-A*01:01. The description is as above.
For experiment [11], the target named is HLA-B*08:01. The experiment is described as above.
Experiment [12] has as its target HLA-A*11:01. The description is as above.
The target in experiment [13] is HLA-A*31:01. The experiment is described as above.
Another experiment addresses HLA-A*02:01. The description is as above.
The target in experiment [14] is HLA-B*58:01. The experiment is described as above.
For another experiment, the target named is HLA-B*27:05. The description is as above.
In experiment [15] the target is HLA-A*69:01. The description is as above.
For a further experiment, the target named is HLA-B*44:02. The experiment is described as above.
A further experiment deals with HLA-B*40:01. The experiment is described as above.
Another experiment addresses HLA-A*03:01. Described as above.
For another experiment, the target named is HLA-A*02:50. Kind of experiment: IEDB peptide-MHC binding, purified MHC/competitive/fluorescence; filed as Kd, often an IC50 or EC50 that approximates it; ≥ and ≤ were set here for values at or beyond the usual limits of such assays.
Another experiment concerns the target HLA-C*03:03. Kind of experiment: IEDB peptide-MHC binding, purified MHC/direct/fluorescence; filed as Kd, often an IC50 or EC50 that approximates it; ≥ and ≤ were set here for values at or beyond the usual limits of such assays. Conditions: source organism: Escherichia coli O157:H7 str. EDL933.
In the next experiment the target is HLA-A*24:02. The experiment is described as above. Particulars: source organism: Escherichia coli O157:H7.
The target of experiment [16] is HLA-B*18:01. Described as above. Conditions: source organism: Escherichia coli O157:H7.
Another experiment deals with HLA-A*02:16. The description is as above. Conditions: source organism: Mycobacterium tuberculosis.
The mark [17] stands for this setting: source organism: Listeria monocytogenes.
[18] abbreviates: source organism: Listeria monocytogenes serotype 4b str. H7858.
Where [19] appears, read: source organism: Vibrio vulnificus.
Setting [20] is: source organism: Escherichia coli O157:H7.
Where [21] appears, read: source organism: Giardia lamblia ATCC 50803.
[22] abbreviates: source organism: Mycobacterium tuberculosis.

The Kd is a measure of binding affinity in units of concentration. Read a low Kd as higher affinity. With LMKAPGTYH, the dissociation constant Kd with HLA-B*15:02 (setting [17]) was 0.258 µM; with HLA-B*46:01 (setting [17]) it was 4.83 µM; with HLA-B*07:02 (setting [18]) it was no less than 20 µM; with HLA-B*15:01 (setting [17]), 0.0668 µM; in the experiment with HLA-B*35:01 [1] (setting [18]) it was no less than 20 µM.
With KSLFNTVATLY, the Kd in the experiment with HLA-A*01:01 [2] is 2.11 µM; with HLA-B*08:01 [3], no less than 20 µM; with HLA-A*11:01 [4], 0.233 µM; in the experiment with HLA-B*57:01 it was 0.235 µM; in the experiment with HLA-A*31:01 [5], no less than 20 µM; with HLA-A*68:02 it was 3.47 µM. Also, the Kd with HLA-A*26:02 is no less than 20 µM; with HLA-B*58:01 [6], 0.0028 µM; in the experiment with HLA-B*15:17, 0.0038 µM; in the experiment with HLA-A*69:01 [7], 2.84 µM; with HLA-A*02:03, 0.19 µM; with HLA-A*02:06, 0.155 µM. Moreover, the Kd is no less than 20 µM with HLA-B*39:01, 0.242 µM with HLA-B*18:01 [8], no less than 20 µM with HLA-A*30:01 and 2.41 µM in the experiment with HLA-B*35:01 [9].
As for IQTHCEVGY, the Kd with HLA-A*26:01 (setting [19]), with HLA-A*01:01 [10] (setting [19]), with HLA-B*08:01 [11] (setting [19]), with HLA-A*11:01 [12] (setting [19]), with HLA-A*31:01 [13] (setting [19]) and with HLA-B*15:02 (setting [19]) was no less than 20 µM throughout. Moreover, the Kd with HLA-A*02:01 (setting [19]), in the experiment with HLA-B*46:01 (setting [19]), in the experiment with HLA-B*58:01 [14] (setting [19]), with HLA-B*27:05 (setting [19]), with HLA-A*69:01 [15] (setting [19]) and in the experiment with HLA-B*07:02 (setting [19]) was no less than 20 µM in each case. Also, the equilibrium dissociation constant (Kd) with HLA-B*44:02 (setting [19]) is no less than 20 µM; with HLA-B*15:01 (setting [19]), 0.285 µM; with HLA-B*40:01 (setting [19]), no less than 20 µM; with HLA-A*03:01 (setting [19]), no less than 20 µM; with HLA-B*35:01 [1] (setting [19]), 0.94 µM.
YLFQWNDNV: the equilibrium dissociation constant (Kd) with HLA-A*02:50 (source organism: Escherichia coli O157:H7 str. EDL933) is no more than 0.0001 µM; with HLA-A*01:01 [10] (setting [20]), no less than 20 µM; in the experiment with HLA-A*11:01 [12] (setting [20]), no less than 20 µM; with HLA-C*03:03, no less than 20 µM; with HLA-A*02:01 (setting [20]), 0.0021 µM; in the experiment with HLA-B*58:01 [14] (setting [20]), no less than 20 µM. Moreover, the Kd in the experiment with HLA-B*27:05 (setting [20]) was no less than 20 µM; with HLA-A*69:01 [15] (setting [20]), 0.0036 µM; with HLA-B*07:02 (setting [20]), no less than 20 µM; with HLA-B*44:02 (setting [20]), no less than 20 µM; with HLA-B*15:01 (setting [20]), 1.71 µM; in the experiment with HLA-A*24:02 it was no less than 20 µM. For the same sequence, the Kd in the experiment with HLA-B*40:01 (setting [20]), with HLA-A*03:01 (setting [20]) and in the experiment with HLA-B*18:01 [16] was no less than 20 µM each time.
Regarding LLPYPIAGC, the Kd with HLA-A*02:50 (source organism: Giardia intestinalis ATCC 50581) is 0.0235 µM; with HLA-A*26:01 (setting [21]), no less than 20 µM; with HLA-A*01:01 [10] (setting [21]), no less than 20 µM; with HLA-B*08:01 [11] (setting [21]) it was no less than 20 µM; in the experiment with HLA-A*11:01 [12] (setting [21]), no less than 20 µM; with HLA-A*31:01 [13] (setting [21]), no less than 20 µM. For the same sequence, the Kd with HLA-A*02:01 (setting [21]) is 5.1 µM; in the experiment with HLA-B*58:01 [14] (setting [21]) it was no less than 20 µM; in the experiment with HLA-B*27:05 (setting [21]), no less than 20 µM; with HLA-A*69:01 [15] (setting [21]), 4.2 µM; with HLA-B*07:02 (setting [21]) it was no less than 20 µM; in the experiment with HLA-B*44:02 (setting [21]) it was no less than 20 µM. Also, the Kd in the experiment with HLA-B*15:01 (setting [21]), in the experiment with HLA-B*40:01 (setting [21]) and with HLA-A*03:01 (setting [21]) was no less than 20 µM throughout.
In the case of LLLRPFWPA, the Kd in the experiment with HLA-A*02:50 (setting [22]) came out at 0.0091 µM; in the experiment with HLA-A*02:16, 0.01 µM; in the experiment with HLA-A*02:01 (setting [22]), 0.113 µM; in the experiment with HLA-A*69:01 [15] (setting [22]), 0.0303 µM.

These data come from the Immune Epitope Database (IEDB).
